Laboratory results taken from patent US20200317768A1 (published 2020).
Where a chain is given by its changes, count along the chain named.

T1: human FcγRIIb extracellular domain with C-terminal His-tag (human, UniProt P31994 43-217)
T1 construct: also called human FcgRIIb
T1 sequence: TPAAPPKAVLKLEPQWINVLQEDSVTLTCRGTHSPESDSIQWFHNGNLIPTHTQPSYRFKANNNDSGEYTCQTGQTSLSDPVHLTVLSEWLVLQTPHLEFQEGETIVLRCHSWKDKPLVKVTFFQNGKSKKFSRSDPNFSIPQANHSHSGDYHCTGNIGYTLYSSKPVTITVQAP

T2: human FcγRIIaR extracellular domain with C-terminal His-tag (human, UniProt P12318 34-217)
T2 construct: also called human FcgRIIaR; FcγRIIa (type R)
T2 chain: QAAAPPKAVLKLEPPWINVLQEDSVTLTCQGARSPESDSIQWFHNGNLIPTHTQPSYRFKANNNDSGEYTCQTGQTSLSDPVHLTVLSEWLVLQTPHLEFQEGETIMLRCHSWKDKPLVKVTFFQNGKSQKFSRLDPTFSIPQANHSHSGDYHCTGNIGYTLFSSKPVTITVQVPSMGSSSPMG

T3: cynomolgus monkey FcγRIIa2 extracellular domain with C-terminal His-tag (cynomolgus monkey)
T3 construct: also called cyno FcgRIIa2; cynoFcγRIIa2
T3 chain: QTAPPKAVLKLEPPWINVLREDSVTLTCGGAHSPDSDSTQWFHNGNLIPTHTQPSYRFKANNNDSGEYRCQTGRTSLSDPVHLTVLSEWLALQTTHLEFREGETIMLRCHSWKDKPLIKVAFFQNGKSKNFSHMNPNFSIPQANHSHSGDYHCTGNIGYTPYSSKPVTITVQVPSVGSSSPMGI

T4: human FcγRIIaH extracellular domain with C-terminal His-tag (human, UniProt P12318 34-217)
T4 construct: also called human FcgRIIaH; FcγRIIa (type H)
T4 sequence: T2 chain with R134H

T5: cynomolgus monkey FcγRIIb extracellular domain with C-terminal His-tag (cynomolgus monkey)
T5 construct: also called cyno FcgRIIb; cynoFcγRIIb
T5 chain: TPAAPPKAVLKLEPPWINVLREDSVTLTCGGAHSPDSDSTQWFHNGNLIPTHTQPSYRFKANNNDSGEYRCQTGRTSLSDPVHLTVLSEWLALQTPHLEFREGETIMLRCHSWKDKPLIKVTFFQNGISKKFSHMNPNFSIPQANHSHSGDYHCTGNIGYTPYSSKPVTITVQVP

T6: cynomolgus monkey FcγRIIIaS extracellular domain with C-terminal His-tag (cynomolgus monkey, UniProt Q8SPW2 21-206 at identity 1.00))
T6 construct: also called cyno FcgRIIIaS; cynoFcγRIIIaS
T6 chain: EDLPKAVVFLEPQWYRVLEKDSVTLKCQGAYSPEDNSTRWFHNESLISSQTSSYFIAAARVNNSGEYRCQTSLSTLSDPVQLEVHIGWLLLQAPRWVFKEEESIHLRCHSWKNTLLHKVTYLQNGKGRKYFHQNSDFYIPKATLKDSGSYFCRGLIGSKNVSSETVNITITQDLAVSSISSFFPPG

T7: cynomolgus monkey FcγRIIa1 extracellular domain with C-terminal His-tag (cynomolgus monkey)
T7 construct: also called cyno FcgRIIa1; cynoFcγRIIa1
T7 chain: T3 chain with T95P, A121T, K127I, S128A, N130K, N135D, Q142R

T8: cynomolgus monkey FcγRIIa3 extracellular domain with C-terminal His-tag (cynomolgus monkey)
T8 construct: also called cyno FcgRIIa3; cynoFcγRIIa3
T8 chain: T3 chain with K127I, N130K, H133P, Q142R

B1: M103205H795-MY341/M103202L889-SK1 (antibody, human IgG1, kappa)
heavy: QVTLKESGPVLVKPTETLTLTCTVSGIDLSHDDISWVRQAPGKGLEWVGIISYAGSTYYASWAKGRLTISKDTSKNQVVLTMTNMDPVDTATYYCARGVPAYSHGGDLWGQGTLVTVSSASTKGPSVFPLAPSSKSTSGGTAALGCLVKDYFPEPVTVSWNSGALTSGVHTFPAVLQSSGLYSLSSVVTVPSSSLGTQTYICNVNHKPSNTKVDKKVEPKSCDKTHTCPPCPAPELLLGPSVFLFPPKPKDTLMISRTPEVTCVVVDVSDEDPEVKFNWYVDGVEVHNAKTKPREELYNSTYRVVSVLTVLHQDWLNGKEYKCKVSNTALPKPIEKTISKAKGQPREPQVYTLPPSREEMTKNQVSLTCLVKGFYPSDIAVEWESNGQPENNYKTTPKVLDSDGSFFLYSKLTVDKSRWQQGNVFSCSVMHEALHNHYTQKSLSLSP
light: DIVMTQSPATLSLSPGERATLSCTSSQSVYHANWLSWFQQKPGQPPKLLIYWASTLAYGVPSRFSGSGSGTDFTLTISSLQPEDAATYYCAGGYGGGRYAFGQGTKVEIKRTVAAPSVFIFPPSDEQLKSGTASVVCLLNNFYPREAKVQWKVDNALQSGNSQESVTEQDSKDSTYSLSSTLTLSKADYEKHKVYACEVTHQGLSSPVTKSFNRGEC
notes: Substitutions introduced into M103205H795-SG1, expressed with M103202L889-SK1 as light chain; EU numbering
B2: M103205H795-MY386/M103202L889-SK1 (antibody, human IgG1, kappa)
heavy: B1 heavy with K398P
light: B1 light
notes: as for B1
B3: M103205H795-MY387/M103202L889-SK1 (antibody, human IgG1, kappa)
heavy: B1 heavy with L238T, S241V, L297Q, T328K, K398P
light: B1 light
notes: as for B1
B4: M103205H795-MY388/M103202L889-SK1 (antibody, human IgG1, kappa)
heavy: B1 heavy with L238T, S241I, L297Q, T328K, K398P
light: B1 light
notes: as for B1
B5: M103205H795-MY389/M103202L889-SK1 (antibody, human IgG1, kappa)
heavy: B1 heavy with L238T, S241L, L297Q, T328K, K398P
light: B1 light
notes: as for B1
B6: M103205H795-MY342/M103202L889-SK1 (antibody, human IgG1, kappa)
heavy: B1 heavy with T328K, K398M
light: B1 light
notes: as for B1
B7: M103205H795-MY400/M103202L889-SK1 (antibody, human IgG1, kappa)
heavy: B1 heavy with L238T, L297Q, T328K, P333E, K398P
light: B1 light
notes: as for B1
B8: M103205H795-MY392/M103202L889-SK1 (antibody, human IgG1, kappa)
heavy: B1 heavy with L238T, L297Q, S300L, T328K, K398P
light: B1 light
notes: as for B1

How the values were obtained:
Experiment in all cases: SPR (BIACORE), antibody captured, FcgR analyte
[1] = target: T1, human FcγRIIb extracellular domain with …
[2] = target: T2, human FcγRIIaR extracellular domain …
[3] = target: T3, cynomolgus monkey FcγRIIa2 …
[4] = target: T4, human FcγRIIaH extracellular domain …
[5] = target: T5, cynomolgus monkey FcγRIIb extracellular …
[6] = target: T6, cynomolgus monkey FcγRIIIaS …
[7] = target: T7, cynomolgus monkey FcγRIIa1 …
[8] = target: T8, cynomolgus monkey FcγRIIa3 …

| Binder | Kd [1] [nM] | Kd [2] [nM] | Kd [3] [µM] | Kd [4] [nM] | Kd [5] [nM] | Kd [6] [nM] | Kd [7] [nM] | Kd [8] [µM] |
| --- | --- | --- | --- | --- | --- | --- | --- | --- |
| B1 | 1800 | 420 | 2.9 | 260 | 600 | 340 | 2500 | 8.8 |
| B2 | 4600 | 1700 | 5.6 | 810 | 1500 | 2500 | 5200 | 16 |
| B3 | 1600 | 200 | 19 | 340 | 830 | 2500 | 2300 | 1.4 |
| B4 | 1500 | 230 | 1.7 | 330 | 760 | 1600 | 2200 | 1.3 |
| B5 | 1100 | 190 | 16 | 270 | 700 | 1500 | 2000 | 1.4 |
| B6 | 3900 | 1000 | 8.5 | 370 | 1300 | 2600 | 5100 | 51 |
| B7 | 2500 | 740 | 2.2 | 420 | 630 | 24000 | 18000 | 3.8 |
| B8 | 1700 | 410 | 2.3 | 430 | 700 | 4000 | 300 | 3.9 |
